Drawing on PMC6402204, “Production Optimization of an Active β-Galactosidase of Bifidobacterium animalis in Heterologous Expression Systems” (BioMed Research International, 2019), this text covers Km for one protein.

Substrate in the data set: O=[N+]([O-])c1ccccc1O[C@@H]1O[C@H](CO)[C@H](O)[C@H](O)[C@H]1O
Description: purified protein. It is filed as biochemical, Bifidobacterium animalis. The conditions noted are these: pH 6.0, 100 mM Na2HPO4-citric acid, 60°C, oNPG 1.38-25 mM, free enzyme.

B1: bG42-106 (Bifidobacterium animalis subsp. lactis) (protein)
chain: MSASTQHRAHRWPQPLPGNDRKIWFGADYNPDQWPEDVQDEDIRLMKQAGVNIVSLAIFSWANIETSDGNFEFDWLDRVIDKLYKAGIAVDLASATASPPMWLTSAHPEVLRRDEQGHVIWPGARQHWRPTSPTFRTYALRLCREMAEHYKDNPAIVSWHVGNEYGCHNYFDYSDDAVQAFREWCRDRYGTIDKVNAAWGTNFWSQRLNSFEEILPPRYVGGEGNFTNPGRLLDFKHFCSDALKEFFCAERDVLSEVTPNIPLTTNFMVSASQNTLDYDDWAHEVDFVSNDHYFTPGSWHIDELAYSASLVDGISRKKPWFLMEQSTSAVNWREINPRKEPGELIRDSMLHLAMGADAICYFQWRQSRSGAEKFHSAMLPLAGEHSQIYRDVCALGADLDTLSDAGILRSKLSKARVAIVQDIQSEWATEHTATPTQHIREWTEPLDWFAAFANRGVTADVTPIHAQWDTYDAVVIPCVYLFSEEMAERLRTFVRNGGKAFVTYYSALADEHDRLHTEGWPGLIGDVVGVRIEEHCPLGTLFPGMLDHLDVSNGTVVHDLADVIDAIADDTTVLATFEADPATGMDGRAAITVHPYHEGGVAYIAGKLGRDGISQSLPEICAALGFELDADPRAGDVLRVVREQEDGAIFEFLFNRTRNTVTADRPAGDMLICSLATDSTDKVTLEPNGVLAFRR
notes: full-length, 695 residues, 78 kDa calculated, no signal peptide; C-terminal His6 (pET-30a(+)), E. coli BL21(DE3), Ni-NTA purified; homodimer by native PAGE (~180 kDa)
As for B1, the Km is listed as 5.14 mM.

Usually Km stands for the substrate concentration at which the rate is half of its maximum.
